B1: murine monoclonal antibody 5E3 (antibody, V domains shown)
VH: QVQLQQSGPELVKPGASVRISCKASGYIFTSYYIQWVIHRPGQGLEWIGWIYPGNVNTKYNEKFKGKATLTADKSSSTAYMQLSRLTSEDSAVYFCARMDYEAHYWGQGTTLTVSS
VL: DIQMTQSPSSLSASLGERVSLTCRASQEISGYLTWLQQKPDGTIKRLIYAASTLDSGVPKRFSGSRSGSDYSLTISSLESEDFADYNCLQYANYPRTFGGGTKLEIK
notes: mouse antibody of the 5E3 hybridoma; also called murine 5E3; m5E3
B2: hu5E3-IgG2 (antibody, V domains shown)
VH: QVQLQQSGPEVKKPGASVKISCKASGYIFTSYYIQWVIHAPGQGLEWIGWIYPGNVNTKYNEKFKGKATLTADKSSSTAYMELSSLTSEDTAVYFCARMDYEAHYWGQGTTVTVSS
VL: DIQMTQSPSSLSASVGDRVTITCRASQEISGYLTWLQQKPEGAIKRLIYAASTLDSGVPKRFSGSRSGSDYSLTISSLQPEDFATYNCLQYANYPRTFGGGTKLEIK
notes: human IgG2/kappa; also called humanized 5E3 IgG2
B3: hu5E3-IgG4 (antibody, V domains shown)
VH: QVQLQQSGPEVKKPGASVKISCKASGYIFTSYYIQWVIHAPGQGLEWIGWIYPGNVNTKYNEKFKGKATLTADKSSSTAYMELSSLTSEDTAVYFCARMDYEAHYWGQGTTVTVSS
VL: DIQMTQSPSSLSASVGDRVTITCRASQEISGYLTWLQQKPEGAIKRLIYAASTLDSGVPKRFSGSRSGSDYSLTISSLQPEDFATYNCLQYANYPRTFGGGTKLEIK
notes: human IgG4/kappa; also called humanized 5E3 IgG4

Tests used:
cSNK:BSA conjugate [1] = target: T1, cSNK:BSA conjugate (bovine, head-to-tail cyclized; conjugated to BSA carrier); experiment: BLI 2:1 fit, site 1; 50 nM row
T1 construct: also called BSA-cSNK
T1 sequence (P02769 25-607 limits assumed): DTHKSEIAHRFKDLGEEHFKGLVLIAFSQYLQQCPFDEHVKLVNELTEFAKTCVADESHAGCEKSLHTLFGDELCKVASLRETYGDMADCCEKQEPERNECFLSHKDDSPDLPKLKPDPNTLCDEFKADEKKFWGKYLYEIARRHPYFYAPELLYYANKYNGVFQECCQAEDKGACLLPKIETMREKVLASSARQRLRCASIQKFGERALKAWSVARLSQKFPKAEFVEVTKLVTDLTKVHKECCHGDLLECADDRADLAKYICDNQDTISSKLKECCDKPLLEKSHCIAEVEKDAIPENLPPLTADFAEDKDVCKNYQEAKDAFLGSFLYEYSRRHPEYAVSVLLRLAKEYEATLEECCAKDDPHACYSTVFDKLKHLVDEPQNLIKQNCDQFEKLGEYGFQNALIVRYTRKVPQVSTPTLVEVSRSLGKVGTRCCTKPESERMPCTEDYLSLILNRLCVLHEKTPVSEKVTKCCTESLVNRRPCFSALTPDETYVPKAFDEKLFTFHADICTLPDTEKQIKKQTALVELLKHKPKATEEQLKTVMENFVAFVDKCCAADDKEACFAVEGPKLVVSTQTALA
Method: (§1) Biolayer interferometry (Octet […], ForteBio) was used to qualitatively/quantitatively assess the interactions between humanized versions of 5E3 and cSNK:BSA conjugate. […] MAbs were loaded onto sensors and then washed in PBST. Each sensor was associated with one of several cSNK:BSA standards (100 nM to 0 nM) and then washed in PBST. Data was processed statistically using ForteBio Data Analysis software to determine the strength of antigen-antibody binding (KD). For each mAb analyzed, a 2:1 model provided the “best fit”.

cSNK:BSA conjugate [2] = target: T1, cSNK:BSA conjugate; experiment: BLI 2:1 fit, site 1; 100 nM row
Method: as §1

cSNK:BSA conjugate [3] = target: T1, cSNK:BSA conjugate; experiment: BLI 2:1 fit, site 1; 3.13 nM row
Method: as §1

cSNK:BSA conjugate [4] = target: T1, cSNK:BSA conjugate; experiment: BLI 2:1 fit, site 1; 6.25 nM row
Method: as §1

cSNK:BSA conjugate [5] = target: T1, cSNK:BSA conjugate; experiment: BLI 2:1 fit, site 1; 1.56 nM row
Method: as §1

cSNK:BSA conjugate [6] = target: T1, cSNK:BSA conjugate; experiment: BLI 2:1 fit, site 2 (KD2); 25 nM row
Method: as §1

cSNK:BSA conjugate [7] = target: T1, cSNK:BSA conjugate; experiment: BLI 2:1 fit, site 2 (KD2); 100 nM row
Method: as §1

cSNK:BSA conjugate [8] = target: T1, cSNK:BSA conjugate; experiment: BLI 2:1 fit, site 2 (kon2); 25 nM row
Method: as §1

cSNK:BSA conjugate [9] = target: T1, cSNK:BSA conjugate; experiment: BLI 2:1 fit, site 2 (KD2); 3.13 nM row
Method: as §1

cSNK:BSA conjugate [10] = target: T1, cSNK:BSA conjugate; experiment: BLI 2:1 fit, site 2 (KD2); 6.25 nM row
Method: as §1

cSNK:BSA conjugate [11] = target: T1, cSNK:BSA conjugate; experiment: BLI 2:1 fit, site 2 (kdis2); 25 nM row
Method: as §1

cSNK:BSA conjugate [12] = target: T1, cSNK:BSA conjugate; experiment: BLI 2:1 fit, site 2 (kdis2); 50 nM row
Method: as §1

cSNK:BSA conjugate [13] = target: T1, cSNK:BSA conjugate; experiment: BLI 2:1 fit, site 2 (KD2); 1.56 nM row
Method: as §1

cSNK:BSA conjugate [14] = target: T1, cSNK:BSA conjugate; experiment: BLI 2:1 fit, site 2 (KD2); 12.5 nM row
Method: as §1

cSNK:BSA conjugate [15] = target: T1, cSNK:BSA conjugate; experiment: BLI 2:1 fit, site 2 (kdis2); 100 nM row
Method: as §1

cSNK:BSA conjugate [16] = target: T1, cSNK:BSA conjugate; experiment: BLI 2:1 fit, site 2 (kon2); 3.13 nM row
Method: as §1

cSNK:BSA conjugate [17] = target: T1, cSNK:BSA conjugate; experiment: BLI 2:1 fit, site 2 (kon2); 6.25 nM row
Method: as §1

cSNK:BSA conjugate [18] = target: T1, cSNK:BSA conjugate; experiment: BLI 2:1 fit, site 2 (kon2); 1.56 nM row
Method: as §1

cSNK:BSA conjugate [19] = target: T1, cSNK:BSA conjugate; experiment: BLI 2:1 fit, site 2 (kon2); 12.5 nM row
Method: as §1

cSNK:BSA conjugate [20] = target: T1, cSNK:BSA conjugate; experiment: BLI 2:1 fit, site 2 (kdis2); 12.5 nM row
Method: as §1

cSNK:BSA conjugate [21] = target: T1, cSNK:BSA conjugate; experiment: BLI 2:1 fit, site 2 (kdis2); 6.25 nM row
Method: as §1

cSNK:BSA conjugate [22] = target: T1, cSNK:BSA conjugate; experiment: BLI 2:1 fit, site 2 (kdis2); 1.56 nM row
Method: as §1

cSNK:BSA conjugate [23] = target: T1, cSNK:BSA conjugate; experiment: BLI (Octet RED96), 2:1 kinetics, KD1, summary table
Method: as §1
(§2) Table 7 summarizes the affinity constants of humanized 5E3 IgG1, IgG2 and IgG4 constructs. The KD ranges were determined using 2:1 kinetics of binding of analyte (BSA-cSNK) in solution to two different binding sites on the surface (immobilized bivalent, monospecific 5E3) in comparison to murine 5E3 using biolayer interferometry (Octet RED96).

cSNK:BSA conjugate [24] = target: T1, cSNK:BSA conjugate; experiment: BLI (Octet), 1:1 model, BSA-cSNK
Method: Biolayer interferometry (Octet Red92, ForteBio) was used to qualitatively/quantitatively assess the interactions between humanized 5E3 and Δ5E3 mAbs to the cSNK:BSA conjugate. […] MAbs were loaded onto sensors and then washed in PBST. Each sensor was associated with one of several cSNK:BSA standards (100 nM to 0 nM) and then washed in PBST. Data was processed statistically using ForteBio Data Analysis software to determine the strength of antigen-antibody binding (KD). For each mAb analyzed, a 1:1 model provided the “best fit”.

cSNK:BSA conjugate [25] = target: T1, cSNK:BSA conjugate; experiment: BLI (Octet RED96), 2:1 kinetics, KD2, summary table
Method: as §1, §2

Binder	Kd (cSNK:BSA conjugate [1]) [nM]	koff (cSNK:BSA conjugate [1]) [s⁻¹]	kon (cSNK:BSA conjugate [1]) [M⁻¹ s⁻¹]	Kd (cSNK:BSA conjugate [2]) [nM]	koff (cSNK:BSA conjugate [2]) [s⁻¹]	kon (cSNK:BSA conjugate [2]) [M⁻¹ s⁻¹]	Kd (cSNK:BSA conjugate [3]) [nM]	koff (cSNK:BSA conjugate [3]) [s⁻¹]	kon (cSNK:BSA conjugate [3]) [M⁻¹ s⁻¹]	Kd (cSNK:BSA conjugate [4]) [nM]	koff (cSNK:BSA conjugate [4]) [s⁻¹]	kon (cSNK:BSA conjugate [4]) [M⁻¹ s⁻¹]	Kd (cSNK:BSA conjugate [6]) [nM]	Kd (cSNK:BSA conjugate [7]) [nM]	kon (cSNK:BSA conjugate [8]) [M⁻¹ s⁻¹]	Kd (cSNK:BSA conjugate [9]) [nM]	Kd (cSNK:BSA conjugate [10]) [nM]	koff (cSNK:BSA conjugate [11]) [s⁻¹]	koff (cSNK:BSA conjugate [12]) [s⁻¹]	Kd (cSNK:BSA conjugate [14]) [nM]	other results
B1	0.33	0.000428	1.29e+06	0.33	0.000428	1.29e+06	0.33	0.000428	1.29e+06	0.33	0.000428	1.29e+06	1.59	1.59	1.42e+07	1.59	1.59	0.0226	0.0226	1.59	Kd (cSNK:BSA conjugate [5]): 0.33 nM; koff (cSNK:BSA conjugate [5]): 0.000428 s⁻¹; kon (cSNK:BSA conjugate [5]): 1.29e+06 M⁻¹ s⁻¹; Kd (cSNK:BSA conjugate [13]): 1.59 nM; koff (cSNK:BSA conjugate [15]): 0.0226 s⁻¹; kon (cSNK:BSA conjugate [16]): 1.42e+07 M⁻¹ s⁻¹; kon (cSNK:BSA conjugate [17]): 1.42e+07 M⁻¹ s⁻¹; kon (cSNK:BSA conjugate [18]): 1.42e+07 M⁻¹ s⁻¹; kon (cSNK:BSA conjugate [19]): 1.42e+07 M⁻¹ s⁻¹; koff (cSNK:BSA conjugate [20]): 0.0226 s⁻¹; koff (cSNK:BSA conjugate [21]): 0.0226 s⁻¹; koff (cSNK:BSA conjugate [22]): 0.0226 s⁻¹; Kd (cSNK:BSA conjugate [23]): 0.33 nM
B2	1.18	0.000762	644000	1.18	0.000762	644000	1.18	0.000762	644000	1.18	0.000762	644000	6.39	6.39	5.28e+06	6.39	6.39	0.0338	0.0338	6.39	Kd (cSNK:BSA conjugate [24]): 0.326 nM; koff (cSNK:BSA conjugate [15]): 0.0338 s⁻¹; kon (cSNK:BSA conjugate [16]): 5.28e+06 M⁻¹ s⁻¹; kon (cSNK:BSA conjugate [17]): 5.28e+06 M⁻¹ s⁻¹; kon (cSNK:BSA conjugate [19]): 5.28e+06 M⁻¹ s⁻¹; koff (cSNK:BSA conjugate [20]): 0.0338 s⁻¹; koff (cSNK:BSA conjugate [21]): 0.0338 s⁻¹; Kd (cSNK:BSA conjugate [23]): 1.18 nM; Kd (cSNK:BSA conjugate [25]): 6.39 nM
B3	0.633	0.00055	868000	0.633	0.00055	868000	0.633	0.00055	868000	0.633	0.00055	868000	3.04	3.04	7.52e+06	3.04	3.04	0.0229	0.0229	3.04	Kd (cSNK:BSA conjugate [5]): 0.633 nM; koff (cSNK:BSA conjugate [5]): 0.00055 s⁻¹; kon (cSNK:BSA conjugate [5]): 868000 M⁻¹ s⁻¹; Kd (cSNK:BSA conjugate [24]): 1.31 nM; Kd (cSNK:BSA conjugate [13]): 3.04 nM; koff (cSNK:BSA conjugate [15]): 0.0229 s⁻¹; kon (cSNK:BSA conjugate [16]): 7.52e+06 M⁻¹ s⁻¹; kon (cSNK:BSA conjugate [17]): 7.52e+06 M⁻¹ s⁻¹; kon (cSNK:BSA conjugate [18]): 7.52e+06 M⁻¹ s⁻¹; kon (cSNK:BSA conjugate [19]): 7.52e+06 M⁻¹ s⁻¹; koff (cSNK:BSA conjugate [20]): 0.0229 s⁻¹; koff (cSNK:BSA conjugate [21]): 0.0229 s⁻¹; koff (cSNK:BSA conjugate [22]): 0.0229 s⁻¹; Kd (cSNK:BSA conjugate [23]): 0.633 nM; Kd (cSNK:BSA conjugate [25]): 0.304 nM

Source: US20170008955A1 (CNJ, published 2017)
